Results as given in the supplement of paper PMC9233669.
Variants at the floor of the assay were thinned out.

What was measured:
biotinyl-Phe-oxazolone = assay: self-aminoacylation, catalytic enhancement (BFO) (fold over background); higher = more active; k-Seq, kA / k0A0; sequences stand for … in GGGAAUGGAUCCACAUCUACGAAUUC…UUCACUGCAGACUUGACGAAGCUG
How it was run: (§1)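 Each biotinyl-aminoacyl-oxazolone, at 2–1250 μM, was incubated with mutagenized RNA pools (0.43 μM) carrying a 21-nt variable region. The 50 μL reactions contained HEPES/NaCl/KCl/MgCl2/CaCl2 buffer with 5% acetonitrile at pH 6.9–7.0 and ran for 90 minutes at room temperature. After streptavidin capture, RNA was measured by qPCR in triplicate and by Illumina sequencing, and catalytic enhancement was calculated as median kA over the uncatalyzed rate from a pseudo-first-order fit of per-sequence fraction reacted.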

biotinyl-Trp-oxazolone = assay: self-aminoacylation, catalytic enhancement (BWO) (fold over background); higher = more active; k-Seq, kA / k0A0; sequences stand for … in GGGAAUGGAUCCACAUCUACGAAUUC…UUCACUGCAGACUUGACGAAGCUG
How it was run: as §1

Row | Sequence | self-aminoacylation (biotinyl-Phe-oxazolone) | self-aminoacylation (biotinyl-Trp-oxazolone)
1 | AAGCUUGCUAAUAGUCGCUAG [Fam3.1 aminoacylation ribozyme variant] | 2.31 | 2
2 | AAGGAUGCUAAUAGUCGCAAG [Fam3.1 aminoacylation ribozyme variant] | 13.7 | 5.63
3 | AAGGUUGCUAAUAGUCGUAAG [Fam3.1 aminoacylation ribozyme variant] | 13.7 | 4.23
4 | AAGUGUGCUAAAAGUCGCAAG [Fam3.1 aminoacylation ribozyme variant] | 10.1 | 4.61
5 | AAGUGUGCUAACAGUCGCAAG [Fam3.1 aminoacylation ribozyme variant] | 12.8 | 4.85
6 | AAGUGUGCUCAUAGUCGCAAG [Fam3.1 aminoacylation ribozyme variant] | 4.43 | 2.34
7 | AAGUUAGCUAAUAGGCGCAAG [Fam3.1 aminoacylation ribozyme variant] | 2.32 | 2.47
8 | AAGUUGGCUAAUAGUCGAAAG [Fam3.1 aminoacylation ribozyme variant] | 2.91 | 2.27
9 | AAGUUGGCUAAUAGUCGCAAG [Fam3.1 aminoacylation ribozyme variant] | 4.46 | 2.29
10 | AAGUUUGCAAAUAGUCGCGAG [Fam3.1 aminoacylation ribozyme variant] | 2.69 | 3.06
11 | AAGUUUGCGAAUAGUCGCGAG [Fam3.1 aminoacylation ribozyme variant] | 8.44 | 2.14
12 | AAGUUUGCUAAAAGUCGAAAG [Fam3.1 aminoacylation ribozyme variant] | 4.76 | 2.17
13 | AAGUUUGCUAAUAGUCCCAAG [Fam3.1 aminoacylation ribozyme variant] | 5.64 | 2.12
14 | AAGUUUGCUAAUAGUCUCAAG [Fam3.1 aminoacylation ribozyme variant] | 15.4 | 4.26
15 | AAGUUUGCUAAUUGUCGCAAA [Fam3.1 aminoacylation ribozyme variant] | 8.83 | 2.49
16 | AAGUUUGGUCAUAGUCGCAAG [Fam3.1 aminoacylation ribozyme variant] | 2.71 | 2.16
17 | AAUGUUGCUAAUAGUCGCAAG [Fam3.1 aminoacylation ribozyme variant] | 2.37 | 2.02
18 | AAUUUUGCUGAUAGUCGCAAG [Fam3.1 aminoacylation ribozyme variant] | 2.05 | 2.31
19 | AUACUUCAAAAAAUCGGUCUG [Fam1A.1 aminoacylation ribozyme variant] | 4.26 | 3.25
20 | AUACUUCAAACAAUCGGGCUG [Fam1A.1 aminoacylation ribozyme variant] | 3.63 | 3.93
21 | AUACUUCAAACAAUCGGUCGG [Fam1A.1 aminoacylation ribozyme variant] | 5.46 | 4.83
22 | AUGUUUGCUAAUAGUCGUAAG [Fam3.1 aminoacylation ribozyme variant] | 18.7 | 5.05
23 | AUUCAGCUAGGUCAUCGGGUC [Fam2.2 aminoacylation ribozyme variant] | 13.5 | 3.24
24 | CAACACUUCAAGAAAUCGGUC [Fam1B.1 aminoacylation ribozyme variant] | 7.2 | 5.88
25 | CAACUUCAAACAAUCAGUCUG [Fam1A.1 aminoacylation ribozyme variant] | 29.7 | 11.2
26 | CAACUUCAAACAAUCCGUCUG [Fam1A.1 aminoacylation ribozyme variant] | 2.94 | 2.31
27 | CAACUUCAAAGAAUCGGUCUG [Fam1A.1 aminoacylation ribozyme variant] | 7.1 | 7.86
28 | CCAAACUUCAAGUAAUCGGUC [Fam1B.1 aminoacylation ribozyme variant] | 10.5 | 7.85
29 | CCAACCUUCAAGCAAUCGGUC [Fam1B.1 aminoacylation ribozyme variant] | 25.8 | 15.3
30 | CCACACUUCAAUCAAUCAGUC [Fam1B.1 aminoacylation ribozyme variant] | 22.8 | 7.45
